Reference: patent publication US20020143164A1, “Ras activator nucleic acid molecules, polypeptides and methods of use” (priority 1999, published 2002)

What was measured:
Rat 2 fibroblasts = assay: Transformation assay (foci formation); type: cell-based; conditions: transient transfection, cultured three weeks
Experimental: Transformation assays were performed using Rat 2 fibroblasts, a suitable cell type for this assay. Rat 2 cells were transiently transfected with empty vector, GRF4 construct, or mutant RasV12 construct (a transforming form of Ras used as a positive control). After transfection, cells were cultured over a period of three weeks with routine changes of media, and were routinely examined for morphology changes under a light microscope.

Rap1 = Rap1 activation assay in living cells (GST-RalGDS-RBD pull-down); type: cell-based, human; conditions: HEK-293T cells, via CDC25 domain
Experimental: (§1) HEK-293T cells were transfected as above, serum starved overnight and then subjected to various treatments, as described in the text. Cells were lysed with lysis buffer (25 mM Hepes, pH 7.5, 150 mM NaCl, 1% NP-40, 0.25% Na deoxycholate, 10% glycerol, 25 mM NaF, 10 mM MgCl2, 1 mM EDTA, 1 mM NaVO4, 10 mg/ml leupeptin, 10 mg/ml aprotinin, 250 mM PMSF) and the level of Ras.GTP or Rap. GTP in the lysates was determined using activation specific probes as described. Briefly, to determined the levels of active Ras (Ras-GTP) in cell, sepharose-bound GST fusion protein of the Ras-binding domain (RBD) of Raf-1 (GST-Raf1-RBD; Upstate Biotechnology Inc.) was used to precipitate Ras-GTP from cell lysates, and the amount of Ras-GTP determined by immunoblotting with anti Ras antibodies (Quality Biotech). Similarly, to determine the level of Rap1-GTP in cell lysates, sepharose-bound GST fusion proteins of the Rap1-binding domain of RaIGDS (GST-RaIGDS-RBD) were used to precipitate Rap1-GTP, which was then detected on a Western blot using anti-Rap1 antibodies (Transduction Lab).

Ras [1] = assay: In vitro pull-down of GRF4 with GST-Ras of different nucleotide-bound states; type: binding; conditions: lysates of 293T cells with Flag-tagged GRF4, GST-Ras beads
From the text: Beads were washed and resolved on SDS-PAGE and subsequently immunoblofted with anti-Flag antibodies to detect Flag-tagged GRF4. […] However, it bound to Ras differentially, depending on the nucleotide-bound states of Ras.

GRF4-cNMP-BD = target: T1, GRF4-cNMP-BD (Homo sapiens, UniProt Q9Y4G8); assay: cAMP-agarose binding assay; conditions: cAMP agarose beads, anti GRF4 immunoblot
T1 construct: The GST-GRF4-cNMP-BD (residue 101-303); made in house
T1 sequence (Q9Y4G8 101-303): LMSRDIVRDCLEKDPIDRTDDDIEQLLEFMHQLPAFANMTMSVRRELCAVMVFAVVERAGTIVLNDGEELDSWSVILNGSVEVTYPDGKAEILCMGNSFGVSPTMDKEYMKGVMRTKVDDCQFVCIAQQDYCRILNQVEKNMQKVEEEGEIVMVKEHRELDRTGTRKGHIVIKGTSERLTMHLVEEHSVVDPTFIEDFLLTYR
Experimental: Right and left panels in (b) represent two separate experiments.
Following extensive washes in HNTG (20 mM Hepes, pH 7.5, 150 mM NaCl, 0.1% Triton ×100, 10% Glycerol) proteins were eluted off beads with sample buffer, separated on SDS-PAGE and immunoblotted with either anti GST antibodies for the in vitro binding experiments, or with anti GRF4 antibodies for the pull down experiments.

Ras [2] = assay: In vitro GEF assay (32P-α-GTP binding to Ras); type: biochemical
Experimental: Full length (GRF4) or CDC25-deleted (ΔCDC25) GRF4, or GRF2, each Flag-tagged, were immunoprecipitated from transfected Hek-293T cells using anti Flag antibodies. Equal amounts of immunoprecipitates were washed with GEF lysis buffer, equilibrated with GEF assay buffer and incubated with 32P-α-GTP (diluted in cold GTP) plus 100 ng of Ras for 30 min. Bound and unbound radiolabelled GTP were then separated by filtration, and the amount of bound GTP determined by scintillation counting, as detailed in the Method section. Fold Ras activation was compared to the activation of Ras in the absence of GRFs (which was set to 1).
GRF4 has a RasGRF(GEF) activity/function. To show its GEF activity, we performed in-vitro GEF assays. Briefly, GST-Ras was added alone (tubes 1 and 2) or along with GST-CDC25, or immunoprecipitated full-length of GRF4 (tubes 3 and 4). All tubes contained assay mixture including cold GTP and P32 alpha GTP. The exchange reactions were stopped at the indicated times. The stopped reaction mixtures were passed through nitrocellulose filters which were then washed with stop buffer to separate bound and unbound nucleotides. Filters were dried and then quantified by scintillation counting to determine bound CPM. The labeled nucleotides trapped on the washed filters were assumed to be Ras-associated. The difference in bound CPM over 30 minute period was determined for reactions where GST-Ras was added alone (it is the difference in bound CPM between tubes 1 and 2) and where GST-Ras was added with a GEF (it is the difference in bound CPM between tubes 3 and 4).

Ras [3] = assay: Ras activation assay in living cells, GRF4 and deletion mutants expressed in HEK-293T cells; type: cell-based, human; conditions: HEK-293T cells, no cNMP stimulation
Experimental: HEK-293T cells were transfected with vector alone, GRF4 (WT), GRF4 lacking its cNMP-BD (ΔcNMP-BD) or its CDC25 domain (ΔCDC25), and then treated (or not) with 8-Br-cAMP. Cell lysates were then incubated with GST-Raf1-RBD to precipitate active Ras, and immunobloited with anti Ras antibodies as above (upper panel). Lower panels are controls for total endogenous Ras and transfected GRF4 or its mutants.
Flag, HA or myc tags was added to the N-terminus of full length GRF4 using PCR, and subcloned into the mammalian expression vector pCMV5 (Invitrogen). Mutants GRF4 with deletion of the CDC25 domain (residue 711-1007, GRF4DCDC25 or DCDC25 for short), the cNMP-BD (residue 134-254, DcNMP-BD), the PLPF motif in the PDZ domain (residue 396-399, -PLPF), or bearing mutations in the PDZ-binding motif (SAV to AAA), were generated using PCR. The GST-GRF4-cNMP-BD (residue 101-303) and GST-Carboxy-terminus (residue 1348-1499) were PCR-generated and cloned into pGEX-2T ( Pharmacia). The latter construct was used to generate a fusion protein (GST-GRF4C terminus) which was used to immunize rabbits for the generation of polyclonal anti GRF4 antibodies.
as §1, with “Cells were lysed with lysis buffer (25 mM Hepes, pH 7.5, 150 mM NaCl, 1% NP-40, 0.25% Na deoxycholate, 10% glycerol, 25 mM NaF, 10 mM MgCl2, 1 mM EDTA, 1 mM NaVO4, 10 mg/ml leupeptin, 10 mg/ml aprotinin, 250 mM PMSF) and the level of Ras.GTP or Rap.” left out

Binding to EDTA-treated Ras (nucleotide-free) (Ras [1]): bound strongly | Binding to Ras-GDP (Ras [1]): bound weakly | Binding to Ras-GTP (Ras [1]): bound strongly | Precipitation by immobilized cAMP from lysates of expressing HEK-293T cells (GRF4-cNMP-BD): able to precipitate | In vitro GEF activity on Ras (Ras [2]): active on Ras | Fold Ras activation in vitro (activation without GRFs set to 1) (Ras [2]; immunoprecipitated Flag-tagged protein, 100 ng Ras, 30 min): ~2.9 fold
B1: GRF4: Ras guanine nucleotide exchange factor polypeptide, SEQ ID NO: 2, 1499 amino acids (protein, listed as Homo sapiens)
chain: MKPLAIPANHGVMGQQEKHSLPADFTKLHLTDSLHPQVTHVSSSHSGCSITSDSGSSSLSDIYQATESEAGDMDLSGLPETAVDSEDDDDEEDIERASDPLMSRDIVRDCLEKDPIDRTDDDIEQLLEFMHQLPAFANMTMSVRRELCAVMVFAVVERAGTIVLNDGEELDSWSVILNGSVEVTYPDGKAEILCMGNSFGVSPTMDKEYMKGVMRTKVDDCQFVCIAQQDYCRILNQVEKNMQKVEEEGEIVMVKEHRELDRTGTRKGHIVIKGTSERLTMHLVEEHSVVDPTFIEDFLLTYRTFLSSPMEVGKKLLEWFNDPSLRDKVTRVVLLWVNNHFNDFEGDPAMTRFLEEFENNLEREKMGGHLRLLNIACAAKAKRRLMTLTKPSREAPLPFILLGGSEKGFGIFVDSVDSGSKATEAGLKRGDQILEVNGQNFENIQLSKAMEILRNNTHLSITVKTNLFVFKELLTRLSEEKRNGAPHLPKIGDIKKASRYSIPDLAVDVEQVIGLEKVNKKSKANTVGGRNKLKKILDKTRISILPQKPYNDIGIGQSQDDSIVGLRQTKHIPTALPVSGTLSSSNPDLLQSHHRILDFSATPDLPDQVLRVFKADQQSRYIMISKDTTAKEVVIQAIREFAVTATPDQYSLCEVSVTPEGVIKQRRLPDQLSKLADRIQLSGRYYLKNNMETETLCSDEDAQELLRESQISLLQLSTVEVATQLSMRNFELFRNIEPTEYIDDLFKLRSKTSCANLKRFEEVINQETFWVASEILRETNQLKRMKIIKHFIKIALHCRECKNFNSMFAIISGLNLAPVARLRTTWEKLPNKYEKLFQDLQDLFDPSRNMAKYRNVLNSQNLQPPIIPLFPVIKKDLTFLHEGNDSKVDGLVNFEKLRMIAKEIRHVGRMASVNMDPALMFRTRKKKWRSLGSLSQGSTNATVLDVAQTGGHKKRVRRSSFLNAKKLYEDAQMARKVKQYLSNLELEMDEESLQTLSLQCEPATNTLPKNPGDKKPVKSETSPVAPRAGSQQKAQSLPQPQQQPPPAHKINQGLQVPAVSLYPSRKKVPVKDLPPFGINSPQALKKILSLSEEGSLERHKKQAEDTISNASSQLSSPPTSPQSSPRKGYTLAPSGTVDNFSDSGHSEISSRSSIVSNSSFDSVPVSLHDERRQRHSVSIVETNLGMGRMERRTMIEPDQYSLGSYAPMSEGRGLYATATVISSPSTEELSQDQGDRASLDAADSGRGSWTSCSSGSHDNIQTIQHQRSWETLPFGHTHFDYSGDPAGLWASSSHMDQIMFSDHSTKYNRQNQSRESLEQAQSRASWASSTGYWGEDSEGDTGTIKRRGGKDVSIEAESSSLTSVTTEETKPVPMPAHIAVASSTTKGLIARKEGRYREPPPTPPGYIGIPITDFPEGHSHPARKPPDYNVALQRSRMVARSSDTAGPSSVQQPHGHPTSSRPVNKPQWHKPNESDPRLAPYQSQGFSTEEDEDEQVSAV
Foci formation / transformed phenotype of transfected cells (Rat 2 fibroblasts): induced foci formation | Activation of Rap1 in cells (Rap1): mediates activation of Rap1 | Activation of endogenous Ras by heterologous expression (Ras [3]): weak activation
